Experimental data: patent publication US20180207269A1
Blank lines part the entries; values can stand above or below the molecule they belong to.

Tests used:
[1] = molecular target: CD166 (activated leukocyte cell adhesion molecule, ALCAM) on human cells (human) (UniProt Q13740); experiment: flow cytometry, CD3+ T cells triggered with PWM (0.05ug/ml) w/o ILT3Fc, stained with ILT3Fc-FITC
[2] = molecular target: CD166 (activated leukocyte cell adhesion molecule, ALCAM) on human cells (human) (UniProt Q13740); experiment: flow cytometry, CD3+ T cells triggered with CD3/CD28 (5ug/ml, 1ug/ml) w/o ILT3Fc, stained with ILT3Fc-FITC
[3] = molecular target: CD166 (activated leukocyte cell adhesion molecule, ALCAM) on human cells (human) (UniProt Q13740); experiment: flow cytometry, H9 cells infected with control adeno-virus (Adeno-Control) for 7 days, double staining anti-CD166 PE + ILT3Fc-FITC
[4] = molecular target: CD166 (activated leukocyte cell adhesion molecule, ALCAM) on human cells (human) (UniProt Q13740); experiment: cell-based or functional assay
[5] = molecular target: CD166 (activated leukocyte cell adhesion molecule, ALCAM) on human cells (human) (UniProt Q13740); experiment: flow cytometry, Jurkat cells nucleofected with control vector, double staining anti-CD166 APC + ILT3Fc-FITC
[6] = molecular target: CD166 (activated leukocyte cell adhesion molecule, ALCAM) on human cells (human) (UniProt Q13740); experiment: flow cytometry, H9 cells with CD166 knocked down by CD166 shRNA adeno-virus (Adeno-siCD166) for 7 days, double staining anti-CD166 PE + ILT3Fc-FITC
[7] = molecular target: CD166 (activated leukocyte cell adhesion molecule, ALCAM) on human cells (human) (UniProt Q13740); experiment: flow cytometry, ILT3Fc-FITC on control-virus infected H9 cells
[8] = molecular target: CD166 (activated leukocyte cell adhesion molecule, ALCAM) on human cells (human) (UniProt Q13740); experiment: flow cytometry, CD3+ T cells triggered with CD3/CD28 (5ug/ml, 1ug/ml) in the presence of ILT3Fc (50 ug/mL), stained with ILT3Fc-FITC
[9] = molecular target: CD166 (activated leukocyte cell adhesion molecule, ALCAM) on human cells (human) (UniProt Q13740); experiment: flow cytometry, CD4-gated T helper cells of a healthy donor (low or no ILT3L)
[10] = molecular target: CD166 (activated leukocyte cell adhesion molecule, ALCAM) on human cells (human) (UniProt Q13740); experiment: flow cytometry, CD3+ T cells, Control Treatment, cultured w/o ILT3Fc, stained with ILT3Fc-FITC
[11] = molecular target: CD166 (activated leukocyte cell adhesion molecule, ALCAM) on human cells (human) (UniProt Q13740); experiment: flow cytometry, CD3-gated T cells of a healthy donor (low or no ILT3L)
[12] = molecular target: CD166 (activated leukocyte cell adhesion molecule, ALCAM) on human cells (human) (UniProt Q13740); experiment: flow cytometry, CD166 KO H9 cells (CD166 gene knocked out: control cells without the target), double staining anti-CD166-PE + ILT3.Fc-FITC
[13] = molecular target: CD166 (activated leukocyte cell adhesion molecule, ALCAM) on human cells (human) (UniProt Q13740); experiment: flow cytometry, CD3+ T cells, Control Treatment, cultured with ILT3Fc (50 ug/mL), stained with ILT3Fc-FITC
[14] = molecular target: CD166 (activated leukocyte cell adhesion molecule, ALCAM) on human cells (human) (UniProt Q13740); experiment: flow cytometry, Jurkat cells nucleofected with CD166 over-expression plasmid, double staining anti-CD166 APC + ILT3Fc-FITC
[15] = molecular target: CD166 (activated leukocyte cell adhesion molecule, ALCAM) on human cells (human) (UniProt Q13740); experiment: flow cytometry, Wild-Type H9 cells, double staining anti-CD166-PE + ILT3.Fc-FITC
[16] = molecular target: CD166 (activated leukocyte cell adhesion molecule, ALCAM) on human cells (human) (UniProt Q13740); experiment: flow cytometry, ILT3Fc-FITC on H9 cells with CD166 knocked down by shRNA adeno-virus
[17] = molecular target: CD166 (activated leukocyte cell adhesion molecule, ALCAM) on human cells (human) (UniProt Q13740); experiment: flow cytometry, CD3+ T cells triggered with PWM (0.05ug/ml) in the presence of ILT3Fc (50 ug/mL), stained with ILT3Fc-FITC
[18] = molecular target: CD166 (activated leukocyte cell adhesion molecule, ALCAM) on human cells (human) (UniProt Q13740); experiment: flow cytometry, Jurkat cells pre-incubated with J4-81, then ILT3Fc-FITC
[19] = molecular target: CD166 (activated leukocyte cell adhesion molecule, ALCAM) on human cells (human) (UniProt Q13740); experiment: flow cytometry, Jurkat cells pre-incubated with CD166-Fc, then ILT3Fc-FITC
[20] = molecular target: CD166 (activated leukocyte cell adhesion molecule, ALCAM) on human cells (human) (UniProt Q13740); experiment: flow cytometry, Jurkat cells pre-incubated with CD6-Fc, then ILT3Fc-FITC

Molecule: ILT3Fc (water-soluble recombinant protein: extracellular domain of human ILT3 affixed to the Fc portion of an immunoglobulin) (from UniProt Q8NHJ6 22-259; P01857 104-330) (Fc fusion)
- % cells stained with ILT3Fc-FITC [1]: 23.2%
- % cells stained with ILT3Fc-FITC [2]: 26.9%
- % cells in lower left quadrant (CD166- / ILT3Fc-FITC-) [3]: 6.33%
- % cells in lower right quadrant (CD166- / ILT3Fc-FITC+) [3]: 0.15%
- % cells in upper left quadrant (CD166+ / ILT3Fc-FITC-) [3]: 47%
- % cells in upper right quadrant (CD166+ / ILT3Fc-FITC+) [3]: 46.5%
- inhibition of growth of tumor cell lines at 72 hours [4]: 50 to 90%
- % cells in lower left quadrant (CD166- / ILT3Fc-FITC-) [5]: 30.6%
- % cells in lower right quadrant (CD166- / ILT3Fc-FITC+) [5]: 1.08%
- % cells in upper left quadrant (CD166+ / ILT3Fc-FITC-) [5]: 58%
- % cells in upper right quadrant (CD166+ / ILT3Fc-FITC+) [5]: 10.2%
- % cells in lower left quadrant (CD166- / ILT3Fc-FITC-) [6]: 50%
- % cells in lower right quadrant (CD166- / ILT3Fc-FITC+) [6]: 5.8%
- % cells in upper left quadrant (CD166+ / ILT3Fc-FITC-) [6]: 26.7%
- % cells in upper right quadrant (CD166+ / ILT3Fc-FITC+) [6]: 14.5%
- percent of cells binding ILT3Fc [7]: 46%
- % cells stained with ILT3Fc-FITC [8]: 20.4%
- percent ILT3Fc binding [9]: 1%
- % cells stained with ILT3Fc-FITC [10]: 1.08%
- percent ILT3Fc binding [11]: 12%
- % cells in lower left quadrant (CD166- / ILT3Fc-FITC-) [12]: 96.5%
- % cells in lower right quadrant (CD166- / ILT3Fc-FITC+) [12]: 2.94%
- % cells in upper left quadrant (CD166+ / ILT3Fc-FITC-) [12]: 0.1%
- % cells in upper right quadrant (CD166+ / ILT3Fc-FITC+) [12]: 0.43%
- % cells stained with ILT3Fc-FITC [13]: 0.8%
- % cells in lower left quadrant (CD166- / ILT3Fc-FITC-) [14]: 13.4%
- % cells in lower right quadrant (CD166- / ILT3Fc-FITC+) [14]: 1.08%
- % cells in upper left quadrant (CD166+ / ILT3Fc-FITC-) [14]: 66.3%
- % cells in upper right quadrant (CD166+ / ILT3Fc-FITC+) [14]: 19.2%
- % cells in lower left quadrant (CD166- / ILT3Fc-FITC-) [15]: 3.57%
- % cells in lower right quadrant (CD166- / ILT3Fc-FITC+) [15]: 0.03%
- % cells in upper left quadrant (CD166+ / ILT3Fc-FITC-) [15]: 22.3%
- % cells in upper right quadrant (CD166+ / ILT3Fc-FITC+) [15]: 74.1%
- percent of cells binding ILT3Fc [16]: < 20%
- % cells stained with ILT3Fc-FITC [17]: 15.2%

Molecule: anti-CD166 mAb J4-81 (antibody)
- percent inhibition of ILT3Fc-FITC binding [18]: 28%

Now from value to molecule:

- percent inhibition of ILT3Fc-FITC binding [19]: 30%
B1: human CD166Fc (Fc fusion, UniProt Q13740 28-526, looked up, not shown: a dimerising Fc or GST)
chain: WYTVNSAYGDTIIIPCRLDVPQNLMFGKWKYEKPDGSPVFIAFRSSTKKSVQYDDVPEYKDRLNLSENYTLSISNARISDEKRFVCMLVTEDNVFEAPTIVKVFKQPSKPEIVSKALFLETEQLKKLGDCISEDSYPDGNITWYRNGKVLHPLEGAVVIIFKKEMDPVTQLYTMTSTLEYKTTKADIQMPFTCSVTYYGPSGQKTIHSEQAVFDIYYPTEQVTIQVLPPKNAIKEGDNITLKCLGNGNPPPEEFLFYLPGQPEGIRSSNTYTLTDVRRNATGDYKCSLIDKKSMIASTAITVHYLDLSLNPSGEVTRQIGDALPVSCTISASRNATVVWMKDNIRLRSSPSFSSLHYQDAGNYVCETALQEVEGLKKRESLTLIVEGKPQIKMTKKTDPSGLSKTIICHVEGFPKPAIQWTITGSGSVINQTEESPYINGRYYSKIIISPEENVTLTCTAENQLERTVNSLNVSAISIPEHDEADEISDENREKVNDQA

- percent inhibition of ILT3Fc-FITC binding [20]: 49%
B2: human CD6-Fc (Fc fusion, UniProt P30203 25-398, looked up, not shown: a dimerising Fc or GST)
chain: DQLNTSSAESELWEPGERLPVRLTNGSSSCSGTVEVRLEASWEPACGALWDSRAAEAVCRALGCGGAEAASQLAPPTPELPPPPAAGNTSVAANATLAGAPALLCSGAEWRLCEVVEHACRSDGRRARVTCAENRALRLVDGGGACAGRVEMLEHGEWGSVCDDTWDLEDAHVVCRQLGCGWAVQALPGLHFTPGRGPIHRDQVNCSGAEAYLWDCPGLPGQHYCGHKEDAGAVCSEHQSWRLTGGADRCEGQVEVHFRGVWNTVCDSEWYPSEAKVLCQSLGCGTAVERPKGLPHSLSGRMYYSCNGEELTLSNCSWRFNNSNLCSQSLAARVLCSASRSLHNLSTPEVPASVQTVTIESSVTVKIENKESRE
